Values joined by “and” are separate entries in the source; they are usually repeats but may differ in a detail not shown here. Identical values can stand only once. “Also recorded” adds a separate entry of the source. No end group written: not given here.
Tests used:
[1] = system: Caco-2 cell monolayers; experiment: FITC-dextran 4.4 kDa permeability through Caco-2 monolayer; settings: for Enhancement ratio (FITC-dextran): R=Papp(peptide)/Papp(control); for enhancement of FITC-dextran transport compared with the control: 1.0 mgmt peptide; for Papp of FITC-dextran 4.4 kDa: apical to basolateral
Method: Caco-2 cells were seeded at a density of 2×10^5 cells/cm^2 on 24-well 6.5 mm Transwell polyester membrane inserts (0.4 um pore size, Corning Costar, Cambridge, Mass.). The medium was changed every 2-3 days in both sides of the Transwell membrane. After 20 days the growth medium was replaced with 10 mM HBSS/HEPES buffer pH 7.4 and studies of the cell-monolayer integrity and permeability were performed.
For the permeability assay, we added in the apical side of the Transwell 1 mg/mL FITC-dextran MW 4.4 kDa (Sigma) in 10 mM HBSS/HEPES buffer pH 7.4 with and without 0.2 or 1.0 mg/mL of self-assembling peptides. At each time point, samples were withdrawn from the basorateral side and the amount of FITC-dextran was measured using a fluorescence 96-well plate reader. The excitation and emission wavelengths were 490 nm and 530 nm, respectively. Results were expressed as cumulative transepithelial transport of FITC-dextran as a function of time. All measurements were done in triplicates and expressed as mean±S.D. The apparent permeability coefficient was calculated according to Papp=(dQ/dt)/(dt)/(ACo) in cm/s, where dQ, is the cumulative amount of FITC-dextran in the basolateral side at time t, (dQ/dt) in pmol/s is the permeability rate, Co is the initial concentration of FITC-dextran in the apical side and A is the area of the monolayer. The enhancement ratio R equals to R=(Papp(peptide)/Papp(control)).

[2] = AFM imaging of peptide nanovesicles on mica; format: physicochemical; settings: for Vesicle diameter, AFM analysis: individual nanovesicles; for Vesicle diameter, AFM analysis / Beads diameter, AFM analysis (necklace-like formations): dry state on mica; for number of nanovesicles per necklace: AFM image analysis; for Clusters diameter, AFM analysis: nanovesicle clusters, dry state
Method: For the AFM experiments, 3 uL were removed from the peptide vesicle dispersions (20 mg/mL of peptides in PBS that has been filtered through 0.2 um filters) and deposited on a freshly cleaved mica surface (G250-2 mica sheets 2.5×2.5×0.015 cm; Agar Scientific Ltd, Essex, UK). The bare surface of mica is smooth (rms is about 0.4 nm). Before imaging, each sample was left on mica for 1 min, rinsed with 200 uL of water (Millipore), and dried in a nitrogen gas stream. Images were obtained immediately in air using a Veeco MultiMode NanoScope 3D Controller Scanning Probe Microscope (Digital Instruments, Santa Barbara, Calif.) operated in tapping mode. AFM imaging (512×512 pixels) was performed using soft silicon probes (FESP; nominal length lnom=225 um, width wnom=28 um, tip radius Rnom=8 nm, resonant frequency νnom=75 kHz, spring constant knom=2.8 N m^−1; Veeco Instruments SAS, Dourdan, France). Typical scanning parameters were tapping frequency 73 kHz, integral and proportional gains 0.2 and 0.4, respectively, set point 0.7-1.0 V, and scanning speed 1.0-1.5 Hz. The Nanoscope image processing software was used to obtain height patterns, cross sections, and MIS of the peptide nanovesicles. Images were collected from two different samples at random spot surface sampling (at least five areas).

[3] = Microelectrophoretic mobility (ζ-potential) measurements; format: physicochemical; settings: PBS pH 7.4, 20 mg/mL peptide
Method: To determine the ζ-potential of the peptide nanovesicle formulations we used a Nano ZetaSizer (Malvern Instrument, UK) equipped with an avalanche photodiode as detector and a 4 mW He—Ne laser operated at 633 nm. Data were acquired by laser Doppler velocimetry and phase analysis light scattering (PALS). The self-assembling peptides were dispersed in PBS at a concentration of 20 mg/mL, which is above their CMC, and equilibrated for 30 min at 25° C. prior to detection. Microelectrophoretic data were obtained using the Henry-Smoluchowski equation.

[4] = Critical micelle concentration (CMC) by Dynamic Light Scattering; format: physicochemical
Method: The CMC of the amphiphilic peptides was determined by Dynamic Light Scattering (DLS) experiments (PDDLS/Batch setup, Precision Detectors, Franklin, Mass.). Solutions of different peptide concentrations were prepared in PBS and were filtered through 0.4 urn pore size filters prior to measuring. Scattered light was detected at 90° and the number of photons reaching the avalanche photodiode was recorded. The solvent viscosity and the refractive index of the buffer were taken as 0.894 cP and 1.33, respectively, at […]. Data were acquired in triplicates and processed by the Precision Deconvolve program, […]

[5] = Release of carboxyfluorescein (CF) through peptide vesicles; format: physicochemical; settings: for CF retention / release (in words): PBS pH 7.4
Method: To determine whether the peptide vesicles can be used for drug delivery we measured the release kinetics of the hydrophilic fluorescent probe 5,6-carboxyfluorescein (CF) through the peptide bilayer assemblies. The peptide powder was added into the CF solution in PBS and the suspension was probe-sonicated for 10 min followed by equilibration for 1 hour. Encapsulated CF is strongly quenched and therefore, only the released CF contributes to the fluorescence intensity signal. Released CF was removed by centrifugation at 11,000 rpm for 25 min using Microcon YM-10 membrane tubes (10 kDa cut-off). Then the vesicles were re-suspended in PBS and incubated for 1 hour at 20° C. The newly released CF during incubation was collected by centrifugation through the Microcon membrane and the fluorescence intensity was measured. This process was repeated every 1 hour and a graph was created to show the release kinetics of CF as a function of time.

[6] = Hydrophobic drug uptake and release (Nile red); format: physicochemical; settings: for Nile red emission maxima: Nile red in peptide nanovesicles; for release kinetics of Nile red through peptide nanovesicles (in words): PBS pH 7.4, 20° C.; for retention of Nile red molecules (in words): compared to KA6-CONH2 and DA6-COOH vesicles
Method: The hydrophobic fluorescent probe Nile red was used as a probe molecule to study the peptide nanovesicle bilayer. […] The “thin film” method was used for the preparation of the dispersions. Briefly, 0.2 mg of the amphiphilic peptide was dissolved in ethanol and subsequently the organic solvent was removed under vacuum in a rotary evaporator. Then the produced thin film was rehydrated with 1 mL of PBS, pH 7.4 containing 3.14 uM Nile red. Prior to analysis the dispersions were bath sonicated for 30 minutes. All spectra were recorded at room temperature with excitation and emission slit widths set at 5 nm (RF-5301 PC Shimatzu spectrophotometer). The excitation wavelength was at 546 nm and the emission spectra were recorded from 550 to 700 nm.

[7] = Particle size determination by DLS; format: physicochemical; settings: PBS pH 7.4, 25° C.
Method: Prior to measuring particle sizes by DLS, the peptide vesicle formulations in PBS were filtered through 0.4 um filter to remove vesicle aggregates. Normalized intensity-time correlation functions g^(2) (q,t)=I(q,t)I(q,0))/I(q,01))^2 were measured over a broad time scale (from 10^−7 s to 10^4 s) using a full multiple tau digital correlator (ALV-5000FAST) with 280 channels spaced quasi-logarithmically. The scattering wavevector q=4πn sin(θ/2)/λo depends on the scattering angle θ (herein we used 0=90°), the laser wavelength λo, and the refractive index of the medium n, We used the 671 nm line from a diode pumped solid state laser which operated at a power of less than 5 mW. The scattered light was collected by a single-mode optical fiber (coherence factor ˜0.95), transferred to an avalanche photo-detector and then to the digital correlator for analysis. Accumulation times were of the order of few seconds due to the strong scattered intensity from the dispersions. To check the reproducibility of the results, several time correlation functions were recorded for each peptide vesicle system dilute suspensions the normalized electric-field time auto-correlation function g^(1)=(E(q,t)E*(q,0))/(E(q,0))^2 is related to the experimentally recorded intensity autocorrelation function g^(2) (q,t)^2 through the Siegert relation g^(2) (q, t)=B[1+f*|g(1)(q,t)|^2 where B describes the long delay time behavior of g^(2) (q, t) and f* represents an instrumental factor obtained experimentally from measurements of a dilute polystyrene/toluene solution. In our case, the optical fiber collection results in f*˜0.95. The electric-field time correlation function g^(1)(t) (for simplicity we drop the q-dependence) was analyzed as a weighted sum of independent exponential contributions, i.e., g^(1)∫L(τ)exp(−t/τ)dτ=∫L(ln τ)exp(−t/τ)d in τ. The distribution of relaxation times L(lnr)=τL(τ) was obtained by inverse Laplace transformation of g<′>(q,t) using the CONTIN algorithm.
The apparent hydrodynamic radii of the suspended particles were determined using the Stokes-Einstein relation Rh=kBT/6πηD, where kB is the Boltzmann constant, η is the viscosity of the solvent, and D the diffusion coefficient of the particle. The latter is determined by D=1/t q^2. where τ is the relaxation time of g(^1) (q,t).

[8] = biological target: P-glycoprotein (Homo sapiens, UniProt P08183); experiment: Transepithelial transport of Rhodamine-123 (basolateral to apical); settings: control additions: 100 uM Verapamil or 1% SDS
P-glycoprotein, sequence (P08183 whole entry): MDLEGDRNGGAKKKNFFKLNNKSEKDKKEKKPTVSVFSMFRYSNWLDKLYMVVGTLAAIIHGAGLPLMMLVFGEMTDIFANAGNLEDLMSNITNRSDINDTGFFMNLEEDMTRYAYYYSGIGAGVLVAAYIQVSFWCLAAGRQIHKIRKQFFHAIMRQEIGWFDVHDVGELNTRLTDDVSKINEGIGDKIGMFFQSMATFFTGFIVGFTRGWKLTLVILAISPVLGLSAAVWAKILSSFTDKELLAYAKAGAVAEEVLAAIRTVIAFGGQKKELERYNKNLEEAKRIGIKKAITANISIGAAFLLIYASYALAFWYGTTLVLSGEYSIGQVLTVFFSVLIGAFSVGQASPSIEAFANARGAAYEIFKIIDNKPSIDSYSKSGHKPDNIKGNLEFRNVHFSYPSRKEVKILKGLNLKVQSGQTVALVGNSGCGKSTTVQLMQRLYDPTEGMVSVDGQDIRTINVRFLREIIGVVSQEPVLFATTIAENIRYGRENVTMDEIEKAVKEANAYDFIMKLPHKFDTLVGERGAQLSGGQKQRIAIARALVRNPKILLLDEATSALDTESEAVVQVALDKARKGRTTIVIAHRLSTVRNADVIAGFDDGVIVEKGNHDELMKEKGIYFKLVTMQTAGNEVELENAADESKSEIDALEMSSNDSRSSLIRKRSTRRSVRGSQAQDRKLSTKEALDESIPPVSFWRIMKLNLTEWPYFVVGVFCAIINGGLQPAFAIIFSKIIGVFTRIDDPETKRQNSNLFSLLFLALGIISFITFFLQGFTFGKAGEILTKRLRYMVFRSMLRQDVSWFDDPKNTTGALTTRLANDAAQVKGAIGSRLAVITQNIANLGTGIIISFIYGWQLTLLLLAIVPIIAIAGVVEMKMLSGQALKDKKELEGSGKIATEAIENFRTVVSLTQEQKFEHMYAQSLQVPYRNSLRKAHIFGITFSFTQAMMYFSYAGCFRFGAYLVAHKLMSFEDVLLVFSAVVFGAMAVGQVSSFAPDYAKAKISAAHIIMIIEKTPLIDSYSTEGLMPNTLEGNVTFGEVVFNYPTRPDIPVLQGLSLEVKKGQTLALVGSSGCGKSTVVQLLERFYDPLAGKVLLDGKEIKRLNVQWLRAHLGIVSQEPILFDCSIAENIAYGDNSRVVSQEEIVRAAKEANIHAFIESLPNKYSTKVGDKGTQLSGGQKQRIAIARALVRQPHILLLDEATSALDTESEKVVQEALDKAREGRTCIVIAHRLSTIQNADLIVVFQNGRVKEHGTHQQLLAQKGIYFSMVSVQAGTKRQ
Method: C18 150 mm×46 mm, 3.5 um analytical column, flow rate 0.85 ml/min, detector was set at 500 nm) [15]. The mobile phase, which consisted of acetonitrile, 20 mM sodium acetate buffer pH 4.0, and water containing 1.5 mM. […] Before the end of the experiment, the transepithelial resistance was measured to ensure that the cell monolayer integrity had not been affected by the experimental conditions.

[9] = system: Caco-2 cells
Method: Caco-2 cells (passage 40) were grown at 37° C. in tissue culture flasks with Dubelco's Modified Essential Medium (DMEM) supplemented with 10% v/v FBS (Fetal Bovine Serum) 1% nonessential amino acids and 100 ug/mL penicillin and streptomycin in humidified atmosphere containing 5% v/v CO2. The medium was changed every 2-3 days until cells reach 80% confluence and then were subcultured by trypsinization.
The effect of self-assembling peptides on cell viability and cell proliferation was investigated using the MTT colorimetric assay (Sigma). Caco-2 cells were cultured into the wells of 96-well plates using growth medium until a density of 4×10^3 cells/cm^2 was reached. Then we replaced the growth medium with fresh growth medium containing 0.2 or 1.0 mg/mL self-assembling peptides and the cells were incubated for 3, 24 and 48 h at 37° C. Then 10 uL of MTT reagent was added in each of the wells and the plates were incubated for 3 hat 37° C. Then 100 uL of the detergent solution was added and the plates were stored in the dark for 3 h to dissolve the formazan product. The optical density was measured at 600 nm in a Teknika® ELISA Plate spectrophotometer.

KAAAAAA-NH2 [KA6-CONH2]
Enhancement ratio (FITC-dextran) ([1]; 0.2 mg/ml peptide): 4.0 | Enhancement ratio (FITC-dextran) ([1]; 1.0 mg/ml peptide): 5.1 | enhancement of FITC-dextran transport compared with the control [1]: 5.1 fold | Vesicle diameter, AFM analysis [2]: 169 ± 29 nm | ζ-potential [3]: 12.4±0.9 mV | CMC in PBS [4]: 0.07 mg/mL | CF retention / release (in words) ([5]; listed as KA6-CONH): did not retain CF | Nile red emission maxima ([6]; PBS pH 7.4): 623 nm | Vesicle diameter, DLS analysis [7]: 164 (65-350) nm | average diameter of second DLS peak (probably aggregates of individual vesicles) [7]: 906 nm

DAAAAAA-OH [DA6-COOH]
Enhancement ratio (FITC-dextran) ([1]; 0.2 mg/ml peptide): 5.0 | Enhancement ratio (FITC-dextran) ([1]; 1.0 mg/ml peptide): 6.6 | enhancement of FITC-dextran transport compared with the control [1]: 6.6 fold | number of nanovesicles per necklace [2]: 11±2 and 11 | Beads diameter, AFM analysis (necklace-like formations) [2]: 159±26 nm | Vesicle diameter, AFM analysis [2]: 43 ± 11 nm | Vesicle diameter, AFM analysis ([2]; listed as DA6-COON): 43±11 nm | Clusters diameter, AFM analysis [2]: 135±24 nm | ζ-potential [3]: −14.0±1.1 mV | CMC in PBS [4]: 0.12 mg/mL | CF retention / release (in words) [5]: Fast CF release; also recorded: did not retain CF | Nile red emission maxima ([6]; PBS pH 7.4): 647 nm | Vesicle diameter, DLS analysis [7]: 137 (64-725) nm

CCCCCCCCCCCCOS(=O)(=O)[O-].[Na+] [SDS 1%]
Enhancement ratio (Rhodamine-123) [8]: 3.0 | Papp of Rhodamine-123 ([8]; basolateral to apical): 3.28 ± 0.02 10^-5 cm/s

acetyl-AAAAAAK-CONH2 (Ac-AAAAAAK-NH2) [Ac-A6K-CONH2, amphiphilic surfactant-like self-assembling peptide forming nanovesicles]
Caco-2 cell viability [9]: exceeding 100% | Papp of FITC-dextran 4.4 kDa ([1]; 0.2 mg/ml peptide): 1.20 ± 0.36 10^-5 cm/s | Enhancement ratio (FITC-dextran) ([1]; 0.2 mg/ml peptide): 4.4 | Papp of FITC-dextran 4.4 kDa ([1]; 1.0 mg/ml peptide): 1.51 ± 0.37 10^-5 cm/s | Enhancement ratio (FITC-dextran) ([1]; 1.0 mg/ml peptide): 5.7 | enhancement of FITC-dextran transport compared with the control [1]: 5.7 fold | Vesicle diameter, AFM analysis [2]: 126 ± 23 nm | Vesicle diameter, AFM analysis ([2]; listed as ac-A6K-CONH2): ~126 nm | ζ-potential [3]: 8.5±0.3 mV | CMC in PBS [4]: 0.16 mg/mL | CF retention / release (in words) [5]: significantly retained the negatively charged CF | CF release through peptide nanovesicles ([5]; after 7 h, PBS pH 7.4, 20° C.): approximately 50% | Nile red emission maxima ([6]; PBS pH 7.4): 631 nm | Nile red fluorescence yield compared to other peptide nanovesicle systems ([6]; PBS pH 7.4): significantly higher | release kinetics of Nile red through peptide nanovesicles (in words) [6]: release was slower | retention of Nile red molecules (in words) [6]: retain higher numbers of Nile red molecules | Vesicle diameter, DLS analysis [7]: 122 (30-173) nm | Vesicle diameter, DLS analysis ([7]; listed as ac-A6K-CONH2): 122 nm

acetyl-AAAAAAD-COOH (Ac-AAAAAAD-OH) [Ac-A6D-COOH, amphiphilic surfactant-like self-assembling peptide forming nanovesicles]
Caco-2 cell viability [9]: exceeding 100% | Papp of FITC-dextran 4.4 kDa ([1]; 0.2 mg/ml peptide): 1.82 ± 0.24 10^-5 cm/s | Enhancement ratio (FITC-dextran) ([1]; 0.2 mg/ml peptide): 6.7 | Papp of FITC-dextran 4.4 kDa ([1]; 1.0 mg/ml peptide): 2.13 ± 0.16 10^-5 cm/s | Enhancement ratio (FITC-dextran) ([1]; 1.0 mg/ml peptide): 7.9 | enhancement of FITC-dextran transport compared with the control [1]: 7.9 fold | number of nanovesicles per necklace [2]: 23±3 and 23 | Beads diameter, AFM analysis (necklace-like formations) [2]: 200 ± 11 nm | Beads diameter, AFM analysis (necklace-like formations) ([2]; listed as ac-A6D-COOH): 200±11 nm | Vesicle diameter, AFM analysis [2]: 28 ± 9 nm | Vesicle diameter, AFM analysis ([2]; listed as ac-A6D-COOH): 28±9 nm and ~43 nm | Clusters diameter, AFM analysis [2]: 101 ± 11 nm | Clusters diameter, AFM analysis ([2]; listed as ac-A6D-COOH): 101±11 nm | ζ-potential [3]: −15.4±1.1 mV | CMC in PBS [4]: 0.05 mg/mL | CF retention / release (in words) [5]: only a small CF retention efficiency | initially loaded CF retained by vesicles ([5]; after 7 h, PBS pH 7.4, 20° C.): 13% | Nile red emission maxima ([6]; PBS pH 7.4): 626 nm | release kinetics of Nile red through peptide nanovesicles (in words) [6]: release was slower | retention of Nile red molecules (in words) [6]: to a lesser extent | Vesicle diameter, DLS analysis [7]: 97 (30-320) nm | Vesicle diameter, DLS analysis ([7]; listed as ac-A6D-COOH): 97 nm

From US20150147384A1, “Sustained Delivery of Molecules Using Peptide Surfactants and Uses Thereof” (Massachusetts Institute of Technology, priority 2012, published 2015)
